Data reported in article PMC10191836.

Key:
[1] = target: fibrillin microfibrils purified from bovine ciliary zonules (bovine (endogenous in ciliary zonule)); assay: cryo-EM structure; native bovine ciliary zonule microfibrils in 20 mM Tris-HCl, 150 mM NaCl, 2 mM CaCl2 pH 7.4; single-particle reconstruction of bead (9.7 Å) and arm (18.3 Å) regions, C2 symmetry imposed
[2] = target: fibrillin microfibrils purified from bovine ciliary zonules (bovine (endogenous in ciliary zonule)); assay: STEM mass mapping; full-length LTBP-1 incubated with bovine microfibrils at a 2:1 molar ratio for 4 h at 4 °C; mass per microfibril repeat with and without LTBP-1

Substance | fibrillin monomers per microfibril repeat (monomers per repeat) [1] | stoichiometry N (LTBP-1 molecules per microfibril repeat) [2]
fibrillin microfibrils purified from bovine ciliary zonules (complex) | 8 | –
full-length human LTBP-1S (short splice form of latent TGFβ-binding protein-1) (natural protein) | – | 2
